Target: RtcA (RNA 3'-phosphate cyclase) (Pyrococcus horikoshii, UniProt O59198 1-341)
Test: EMSA

Sequence of RtcA (RNA 3'-phosphate cyclase) (O59198 whole entry): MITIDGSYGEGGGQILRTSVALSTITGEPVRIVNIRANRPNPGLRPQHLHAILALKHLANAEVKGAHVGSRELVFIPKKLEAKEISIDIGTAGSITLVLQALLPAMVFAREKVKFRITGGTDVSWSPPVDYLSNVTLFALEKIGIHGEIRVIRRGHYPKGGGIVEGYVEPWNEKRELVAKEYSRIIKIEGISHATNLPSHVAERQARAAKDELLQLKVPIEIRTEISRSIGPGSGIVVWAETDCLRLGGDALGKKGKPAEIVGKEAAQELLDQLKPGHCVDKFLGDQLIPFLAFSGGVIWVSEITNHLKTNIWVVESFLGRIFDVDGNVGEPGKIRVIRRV

CGUUUU (ssRNA, 3'-phosphate) [U6 6-mer RNA 3'-p]: binds.

Reference: paper PMC4174438
